Source: patent US20190030120A1 (ACADEMIA SINICA, published 2019)

T1: endogenous TIFA (U937 cells) (Homo sapiens, UniProt Q96CG3 1-184)
T1 construct: Endogenous protein of U937 cells
T1 sequence: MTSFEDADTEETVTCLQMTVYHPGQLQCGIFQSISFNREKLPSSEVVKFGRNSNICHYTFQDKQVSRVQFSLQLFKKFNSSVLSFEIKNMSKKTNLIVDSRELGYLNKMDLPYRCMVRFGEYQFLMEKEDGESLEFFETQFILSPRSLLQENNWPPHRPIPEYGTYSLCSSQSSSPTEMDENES

T2: Aurora A (UniProt O14965 1-403)
T2 construct: In the kinase assay it was present in 293T cell extracts, not purified; also called Aurora A kinase
T2 sequence (looked up): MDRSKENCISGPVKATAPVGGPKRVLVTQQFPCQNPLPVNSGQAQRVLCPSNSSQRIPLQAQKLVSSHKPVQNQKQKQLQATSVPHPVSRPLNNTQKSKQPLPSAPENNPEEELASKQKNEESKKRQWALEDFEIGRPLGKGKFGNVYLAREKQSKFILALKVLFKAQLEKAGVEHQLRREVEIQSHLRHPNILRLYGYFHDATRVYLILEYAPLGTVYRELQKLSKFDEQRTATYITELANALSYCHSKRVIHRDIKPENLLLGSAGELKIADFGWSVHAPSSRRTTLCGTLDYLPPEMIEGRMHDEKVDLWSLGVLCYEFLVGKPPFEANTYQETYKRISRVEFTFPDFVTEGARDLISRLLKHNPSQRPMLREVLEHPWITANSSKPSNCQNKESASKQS


Tests used:
[1] = biological target: T1, endogenous TIFA (U937 cells); assay: anti-Myc immunoprecipitation from lysates of transduced U937 cells, western blot
Excerpt: AML lines were respectively infected with pseudotyped retroviruses carrying these constructs to generate stable cells. […] (FIG. 5C) Lysates from U937 cells stably expressing TIFA fragments shown in (FIG. 5B) were immunoprecipitated using anti-Myc immunobeads and analyzed by western blot.
We designed to fine-map the minimal effective region for molecular targeting of TIFA in AML cells through retroviral transduction (FIG. 5B).

[2] = biological target: T2, Aurora A; assay: immunoprecipitation of Aurora A from lysates of 293T cells transfected with HA-tagged TIFA, western blot
Description: After 48 h, cells were treated with or without 10 ng/mL TNF-α (R&D Systems) for 30 min, washed by PBS, and lysed with CHAPS lysis buffer (20 mM PIPES, 1 mM Na₃VO₄, 1 mM EGTA, 50 mM Tris-HCl, 150 mM NaCl, 50 mM NaF, 1% CHAPS, and 10% glycerol) supplemented with protease inhibitor cocktail (Roche), phosphatase inhibitor cocktail 3 (Sigma). Three vig of indicated antibody was pre-coated with 100 μL M-280 Dynabeads (lnvitrogen) overnight at 4° C. The 500 μg cell extracts were incubated with 15 μL antibody-coated Dynabeads at 4° C. overnight. The protein-bead complex was then washed with Tris-buffered saline Tween 20 (TBST) buffer and subjected to Western blot analysis.

Binder | binding result [1] | binding result [2]
TIFA fragment F1F2 with two consecutive Myc-tags (Stably expressed in U937 cells by retroviral transduction (pLNCX); also called F1-F2 peptide fragment; DN fragment; not shown: two consecutive Myc-tags (2Myc)) MTSFEDADTEETVTCLQMTVYHPGQLQCGIFQSISFNREKLPSSEVVKFGRNSNICHYTFQDKQVSRVQFSLQLFKKFNSSVLSFEIKNMSKKTNLIVDSREL | binds | 
HA-tagged TIFA (full-length TIFA wild-type) (other, Expressed in 293T cells from pCDNA3.1. 'full-length TIFA wild-type following a synthesized HA-tag' is read here as an N-terminal tag; also called HA-TIFA; not shown: synthesized HA-tag) MTSFEDADTEETVTCLQMTVYHPGQLQCGIFQSISFNREKLPSSEVVKFGRNSNICHYTFQDKQVSRVQFSLQLFKKFNSSVLSFEIKNMSKKTNLIVDSRELGYLNKMDLPYRCMVRFGEYQFLMEKEDGESLEFFETQFILSPRSLLQENNWPPHRPIPEYGTYSLCSSQSSSPTEMDENES |  | binds
TIFA fragment F2F3 with two consecutive Myc-tags (Stably expressed in U937 cells by retroviral transduction (pLNCX); also called F2-F3 peptide fragment; DN fragment; not shown: two consecutive Myc-tags (2Myc)) VVKFGRNSNICHYTFQDKQVSRVQFSLQLFKKFNSSVLSFEIKNMSKKTNLIVDSRELGYLNKMDLPYRCMVRFGEYQFLMEKEDGESLEFFETQFILSPRSLLQENNWPPHRPIPEYGTYSLCSSQSSSPTEMDENES | binds | 
